Reference: IntAct's records for PubMed 35512704

B1: Speckle-type POZ protein (Homo sapiens), O43791 (parent)
chain: MSRVPSPPPPAEMSSGPVAESWCYTQIKVVKFSYMWTINNFSFCREEMGEVIKSSTFSSGANDKLKWCLRVNPKGLDEESKDYLSLYLLLVSCPKSEVRAKFKFSILNAKGEETKAMESQRAYRFVQGKDWGFKKFIRRDFLLDEANGLLPDDKLTLFCEVSVVQDSVNISGQNTMNMVKVPECRLADELGGLWENSRFTDCCLCVAGQEFQAHKAILAARSPVFSAMFEHEMEESKKNRVEINDVEPEVFKEMMCFIYTGKAPNLDKMADDLLAAADKYALERLKVMCEDALCSNLSVENAAEILILADLHSADQLKTQAVDFINYHASDVLETSGWKSMVVSHPHLVAEAYRSLASAQCPFLGPPRKRLKQS

Variants of: B1
Conditions: with ezh1_human EZH1, Q92800

Variant	effect of a mutation on the interaction
MSRVPSPPPPAEMSSGPVAESWCYTQIKVVKFSYMWTINNFSFCREEMGEVIKSSTFSSGANDKLKWCLRVNPKGLDEESKDYLSLCLLLVSCPKSEVRAKFKFSILNAKGEETKAMESQRAYRFVQGKDWGFKKFIRRDFLLDEANGLLPDDKLTLFCEVSVVQDSVNISGQNTMNMVKVPECRLADELGGLWENSRFTDCCLCVAGQEFQAHKAILAARSPVFSAMFEHEMEESKKNRVEINDVEPEVFKEMMCFIYTGKAPNLDKMADDLLAAADKYALERLKVMCEDALCSNLSVENAAEILILADLHSADQLKTQAVDFINYHASDVLETSGWKSMVVSHPHLVAEAYRSLASAQCPFLGPPRKRLKQS [Y87C]	with no effect

Variants of: B1
Conditions: with ezh2_human EZH2, Q15910
Chain of ezh2_human EZH2, Q15910 (Q15910 whole entry, looked up): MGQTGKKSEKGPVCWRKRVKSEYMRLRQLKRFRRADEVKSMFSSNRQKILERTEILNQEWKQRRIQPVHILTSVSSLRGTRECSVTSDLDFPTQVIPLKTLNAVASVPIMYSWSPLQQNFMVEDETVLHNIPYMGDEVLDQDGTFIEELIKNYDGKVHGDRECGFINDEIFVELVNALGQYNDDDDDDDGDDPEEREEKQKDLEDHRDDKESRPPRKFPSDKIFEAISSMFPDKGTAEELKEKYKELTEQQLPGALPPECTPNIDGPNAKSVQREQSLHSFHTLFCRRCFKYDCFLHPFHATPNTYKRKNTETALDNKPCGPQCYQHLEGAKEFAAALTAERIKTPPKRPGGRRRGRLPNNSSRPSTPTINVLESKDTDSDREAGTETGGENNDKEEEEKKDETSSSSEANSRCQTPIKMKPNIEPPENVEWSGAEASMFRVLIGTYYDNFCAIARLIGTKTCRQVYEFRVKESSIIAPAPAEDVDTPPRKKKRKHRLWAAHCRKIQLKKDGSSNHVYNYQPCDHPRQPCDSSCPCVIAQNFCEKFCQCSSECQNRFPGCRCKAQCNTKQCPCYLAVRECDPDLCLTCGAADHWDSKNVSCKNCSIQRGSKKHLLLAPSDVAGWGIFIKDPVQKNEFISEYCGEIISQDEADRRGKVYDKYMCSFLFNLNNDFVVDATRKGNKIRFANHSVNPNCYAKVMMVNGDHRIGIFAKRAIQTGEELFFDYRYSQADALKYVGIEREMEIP

Variant	effect of a mutation on the interaction
MSRVPSPPPPAEMSSGPVAESWCYTQIKVVKFSYMWTINNFSFCREEMGEVIKSSTFSSGANDKLKWCLRVNPKGLDEESKDYLSLCLLLVSCPKSEVRAKFKFSILNAKGEETKAMESQRAYRFVQGKDWGFKKFIRRDFLLDEANGLLPDDKLTLFCEVSVVQDSVNISGQNTMNMVKVPECRLADELGGLWENSRFTDCCLCVAGQEFQAHKAILAARSPVFSAMFEHEMEESKKNRVEINDVEPEVFKEMMCFIYTGKAPNLDKMADDLLAAADKYALERLKVMCEDALCSNLSVENAAEILILADLHSADQLKTQAVDFINYHASDVLETSGWKSMVVSHPHLVAEAYRSLASAQCPFLGPPRKRLKQS [Y87C]	with no effect

Variants of: B1
Conditions: with facd2_human FANCD2, Q9BXW9
Chain of facd2_human FANCD2, Q9BXW9 (Q9BXW9 whole entry): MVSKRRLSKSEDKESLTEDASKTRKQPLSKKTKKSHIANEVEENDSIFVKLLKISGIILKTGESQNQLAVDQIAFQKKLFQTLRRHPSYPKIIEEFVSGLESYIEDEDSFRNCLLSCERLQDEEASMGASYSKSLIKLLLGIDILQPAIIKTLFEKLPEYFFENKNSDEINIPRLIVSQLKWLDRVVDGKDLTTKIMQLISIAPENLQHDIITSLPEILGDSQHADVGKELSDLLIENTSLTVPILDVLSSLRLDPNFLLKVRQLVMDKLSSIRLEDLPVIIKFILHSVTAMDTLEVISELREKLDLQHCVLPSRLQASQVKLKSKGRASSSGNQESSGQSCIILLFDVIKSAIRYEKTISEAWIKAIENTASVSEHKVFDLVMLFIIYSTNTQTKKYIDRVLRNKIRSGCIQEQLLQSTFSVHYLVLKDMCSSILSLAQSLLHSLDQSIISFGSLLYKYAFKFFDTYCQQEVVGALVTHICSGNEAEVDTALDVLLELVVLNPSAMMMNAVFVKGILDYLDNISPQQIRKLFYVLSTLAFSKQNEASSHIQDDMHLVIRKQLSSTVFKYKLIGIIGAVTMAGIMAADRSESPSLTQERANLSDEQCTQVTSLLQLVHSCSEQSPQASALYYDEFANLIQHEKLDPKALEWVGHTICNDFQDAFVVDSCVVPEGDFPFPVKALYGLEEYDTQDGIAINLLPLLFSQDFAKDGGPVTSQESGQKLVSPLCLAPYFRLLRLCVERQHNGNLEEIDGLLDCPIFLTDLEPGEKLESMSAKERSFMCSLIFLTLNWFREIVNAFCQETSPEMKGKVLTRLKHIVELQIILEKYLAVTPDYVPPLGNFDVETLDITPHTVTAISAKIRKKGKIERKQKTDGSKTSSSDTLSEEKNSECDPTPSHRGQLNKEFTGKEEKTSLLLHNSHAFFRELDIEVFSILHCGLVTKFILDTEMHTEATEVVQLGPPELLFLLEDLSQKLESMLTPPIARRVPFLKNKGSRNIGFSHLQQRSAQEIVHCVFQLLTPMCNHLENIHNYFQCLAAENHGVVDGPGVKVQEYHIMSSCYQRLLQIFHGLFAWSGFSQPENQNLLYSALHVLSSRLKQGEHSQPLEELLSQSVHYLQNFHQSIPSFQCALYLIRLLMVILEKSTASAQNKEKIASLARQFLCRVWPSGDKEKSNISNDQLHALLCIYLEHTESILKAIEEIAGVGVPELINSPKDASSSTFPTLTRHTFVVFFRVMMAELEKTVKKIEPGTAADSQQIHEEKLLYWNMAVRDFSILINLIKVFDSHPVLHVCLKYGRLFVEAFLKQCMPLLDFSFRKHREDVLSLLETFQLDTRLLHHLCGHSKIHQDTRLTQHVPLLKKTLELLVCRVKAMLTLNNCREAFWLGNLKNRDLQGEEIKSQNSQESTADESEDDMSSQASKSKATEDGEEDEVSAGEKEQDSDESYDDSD

Variant	effect of a mutation on the interaction
MSRVPSPPPPAEMSSGPVAESWCYTQIKVVKFSYMWTINNFSFCREEMGEVIKSSTFSSGANDKLKWCLRVNPKGLDEESKDYLSLCLLLVSCPKSEVRAKFKFSILNAKGEETKAMESQRAYRFVQGKDWGFKKFIRRDFLLDEANGLLPDDKLTLFCEVSVVQDSVNISGQNTMNMVKVPECRLADELGGLWENSRFTDCCLCVAGQEFQAHKAILAARSPVFSAMFEHEMEESKKNRVEINDVEPEVFKEMMCFIYTGKAPNLDKMADDLLAAADKYALERLKVMCEDALCSNLSVENAAEILILADLHSADQLKTQAVDFINYHASDVLETSGWKSMVVSHPHLVAEAYRSLASAQCPFLGPPRKRLKQS [Y87C]	with no effect

Variants of: B1
Conditions: with tnr6_human FAS

Variant	effect of a mutation on the interaction
MSRVPSPPPPAEMSSGPVAESWCYTQIKVVKFSYMWTINNFSFCREEMGEVIKSSTFSSGANDKLKWCLRVNPKGLDEESKDYLSLCLLLVSCPKSEVRAKFKFSILNAKGEETKAMESQRAYRFVQGKDWGFKKFIRRDFLLDEANGLLPDDKLTLFCEVSVVQDSVNISGQNTMNMVKVPECRLADELGGLWENSRFTDCCLCVAGQEFQAHKAILAARSPVFSAMFEHEMEESKKNRVEINDVEPEVFKEMMCFIYTGKAPNLDKMADDLLAAADKYALERLKVMCEDALCSNLSVENAAEILILADLHSADQLKTQAVDFINYHASDVLETSGWKSMVVSHPHLVAEAYRSLASAQCPFLGPPRKRLKQS [Y87C]	with no effect

Variants of: B1
Conditions: with fgf19_human FGF19, O95750
Chain of fgf19_human FGF19, O95750 (O95750 whole entry): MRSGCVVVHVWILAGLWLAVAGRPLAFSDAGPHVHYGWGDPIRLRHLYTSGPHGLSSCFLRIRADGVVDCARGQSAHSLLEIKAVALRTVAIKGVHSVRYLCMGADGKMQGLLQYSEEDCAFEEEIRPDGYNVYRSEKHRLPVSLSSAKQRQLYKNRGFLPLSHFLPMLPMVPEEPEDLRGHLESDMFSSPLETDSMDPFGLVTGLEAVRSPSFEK

Variant	effect of a mutation on the interaction
MSRVPSPPPPAEMSSGPVAESWCYTQIKVVKFSYMWTINNFSFCREEMGEVIKSSTFSSGANDKLKWCLRVNPKGLDEESKDYLSLCLLLVSCPKSEVRAKFKFSILNAKGEETKAMESQRAYRFVQGKDWGFKKFIRRDFLLDEANGLLPDDKLTLFCEVSVVQDSVNISGQNTMNMVKVPECRLADELGGLWENSRFTDCCLCVAGQEFQAHKAILAARSPVFSAMFEHEMEESKKNRVEINDVEPEVFKEMMCFIYTGKAPNLDKMADDLLAAADKYALERLKVMCEDALCSNLSVENAAEILILADLHSADQLKTQAVDFINYHASDVLETSGWKSMVVSHPHLVAEAYRSLASAQCPFLGPPRKRLKQS [Y87C]	with no effect

Variants of: B1
Conditions: with fgfp1_human FGFBP1, Q14512

Variant	effect of a mutation on the interaction
MSRVPSPPPPAEMSSGPVAESWCYTQIKVVKFSYMWTINNFSFCREEMGEVIKSSTFSSGANDKLKWCLRVNPKGLDEESKDYLSLCLLLVSCPKSEVRAKFKFSILNAKGEETKAMESQRAYRFVQGKDWGFKKFIRRDFLLDEANGLLPDDKLTLFCEVSVVQDSVNISGQNTMNMVKVPECRLADELGGLWENSRFTDCCLCVAGQEFQAHKAILAARSPVFSAMFEHEMEESKKNRVEINDVEPEVFKEMMCFIYTGKAPNLDKMADDLLAAADKYALERLKVMCEDALCSNLSVENAAEILILADLHSADQLKTQAVDFINYHASDVLETSGWKSMVVSHPHLVAEAYRSLASAQCPFLGPPRKRLKQS [Y87C]	with no effect

Variants of: B1
Conditions: with fgfr4_human FGFR4, P22455

Variant	effect of a mutation on the interaction
MSRVPSPPPPAEMSSGPVAESWCYTQIKVVKFSYMWTINNFSFCREEMGEVIKSSTFSSGANDKLKWCLRVNPKGLDEESKDYLSLCLLLVSCPKSEVRAKFKFSILNAKGEETKAMESQRAYRFVQGKDWGFKKFIRRDFLLDEANGLLPDDKLTLFCEVSVVQDSVNISGQNTMNMVKVPECRLADELGGLWENSRFTDCCLCVAGQEFQAHKAILAARSPVFSAMFEHEMEESKKNRVEINDVEPEVFKEMMCFIYTGKAPNLDKMADDLLAAADKYALERLKVMCEDALCSNLSVENAAEILILADLHSADQLKTQAVDFINYHASDVLETSGWKSMVVSHPHLVAEAYRSLASAQCPFLGPPRKRLKQS [Y87C]	with no effect

Variants of: B1
Conditions: with fumh_human FH

Variant	effect of a mutation on the interaction
MSRVPSPPPPAEMSSGPVAESWCYTQIKVVKFSYMWTINNFSFCREEMGEVIKSSTFSSGANDKLKWCLRVNPKGLDEESKDYLSLCLLLVSCPKSEVRAKFKFSILNAKGEETKAMESQRAYRFVQGKDWGFKKFIRRDFLLDEANGLLPDDKLTLFCEVSVVQDSVNISGQNTMNMVKVPECRLADELGGLWENSRFTDCCLCVAGQEFQAHKAILAARSPVFSAMFEHEMEESKKNRVEINDVEPEVFKEMMCFIYTGKAPNLDKMADDLLAAADKYALERLKVMCEDALCSNLSVENAAEILILADLHSADQLKTQAVDFINYHASDVLETSGWKSMVVSHPHLVAEAYRSLASAQCPFLGPPRKRLKQS [Y87C]	with no effect

Variants of: B1
Conditions: with foxo3_human FOXO3, O43524
Chain of foxo3_human FOXO3, O43524 (O43524 whole entry): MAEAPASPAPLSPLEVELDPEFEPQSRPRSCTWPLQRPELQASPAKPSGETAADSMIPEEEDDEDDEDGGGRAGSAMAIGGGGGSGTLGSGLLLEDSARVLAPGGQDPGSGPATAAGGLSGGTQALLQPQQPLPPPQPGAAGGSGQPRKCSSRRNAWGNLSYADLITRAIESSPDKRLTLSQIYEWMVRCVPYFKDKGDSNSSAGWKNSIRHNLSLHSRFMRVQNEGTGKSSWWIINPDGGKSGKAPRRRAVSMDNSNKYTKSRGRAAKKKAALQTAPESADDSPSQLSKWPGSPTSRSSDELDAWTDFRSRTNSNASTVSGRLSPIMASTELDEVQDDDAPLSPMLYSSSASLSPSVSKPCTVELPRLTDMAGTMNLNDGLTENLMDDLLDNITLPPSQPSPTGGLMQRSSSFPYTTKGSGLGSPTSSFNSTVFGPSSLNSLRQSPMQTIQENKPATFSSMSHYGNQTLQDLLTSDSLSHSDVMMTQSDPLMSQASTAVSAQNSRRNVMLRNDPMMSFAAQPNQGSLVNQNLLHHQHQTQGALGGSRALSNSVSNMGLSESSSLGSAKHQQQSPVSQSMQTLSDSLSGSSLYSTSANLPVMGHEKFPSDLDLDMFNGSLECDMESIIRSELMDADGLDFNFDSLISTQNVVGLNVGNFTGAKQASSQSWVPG

Variant	effect of a mutation on the interaction
MSRVPSPPPPAEMSSGPVAESWCYTQIKVVKFSYMWTINNFSFCREEMGEVIKSSTFSSGANDKLKWCLRVNPKGLDEESKDYLSLCLLLVSCPKSEVRAKFKFSILNAKGEETKAMESQRAYRFVQGKDWGFKKFIRRDFLLDEANGLLPDDKLTLFCEVSVVQDSVNISGQNTMNMVKVPECRLADELGGLWENSRFTDCCLCVAGQEFQAHKAILAARSPVFSAMFEHEMEESKKNRVEINDVEPEVFKEMMCFIYTGKAPNLDKMADDLLAAADKYALERLKVMCEDALCSNLSVENAAEILILADLHSADQLKTQAVDFINYHASDVLETSGWKSMVVSHPHLVAEAYRSLASAQCPFLGPPRKRLKQS [Y87C]	with no effect

Variants of: B1
Conditions: with fzr1_human FZR1, Q9UM11
Chain of fzr1_human FZR1, Q9UM11 (Q9UM11 whole entry): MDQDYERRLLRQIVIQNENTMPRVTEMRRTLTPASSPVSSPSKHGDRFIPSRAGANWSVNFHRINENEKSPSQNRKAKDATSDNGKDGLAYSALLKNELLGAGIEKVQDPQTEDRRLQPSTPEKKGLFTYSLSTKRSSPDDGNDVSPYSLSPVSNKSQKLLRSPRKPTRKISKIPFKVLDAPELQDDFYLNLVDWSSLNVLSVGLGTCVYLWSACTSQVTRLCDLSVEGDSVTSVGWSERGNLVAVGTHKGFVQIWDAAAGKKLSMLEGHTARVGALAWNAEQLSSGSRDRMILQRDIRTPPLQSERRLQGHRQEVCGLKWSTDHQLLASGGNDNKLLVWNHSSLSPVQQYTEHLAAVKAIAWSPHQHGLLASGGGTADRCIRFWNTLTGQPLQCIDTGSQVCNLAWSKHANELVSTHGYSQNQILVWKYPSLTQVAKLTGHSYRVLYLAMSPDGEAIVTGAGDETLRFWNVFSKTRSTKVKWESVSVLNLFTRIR

Variant	effect of a mutation on the interaction
MSRVPSPPPPAEMSSGPVAESWCYTQIKVVKFSYMWTINNFSFCREEMGEVIKSSTFSSGANDKLKWCLRVNPKGLDEESKDYLSLCLLLVSCPKSEVRAKFKFSILNAKGEETKAMESQRAYRFVQGKDWGFKKFIRRDFLLDEANGLLPDDKLTLFCEVSVVQDSVNISGQNTMNMVKVPECRLADELGGLWENSRFTDCCLCVAGQEFQAHKAILAARSPVFSAMFEHEMEESKKNRVEINDVEPEVFKEMMCFIYTGKAPNLDKMADDLLAAADKYALERLKVMCEDALCSNLSVENAAEILILADLHSADQLKTQAVDFINYHASDVLETSGWKSMVVSHPHLVAEAYRSLASAQCPFLGPPRKRLKQS [Y87C]	with no effect

Variants of: B1
Conditions: with gbra6_human GABRA6, Q16445
Chain of gbra6_human GABRA6, Q16445 (Q16445 whole entry): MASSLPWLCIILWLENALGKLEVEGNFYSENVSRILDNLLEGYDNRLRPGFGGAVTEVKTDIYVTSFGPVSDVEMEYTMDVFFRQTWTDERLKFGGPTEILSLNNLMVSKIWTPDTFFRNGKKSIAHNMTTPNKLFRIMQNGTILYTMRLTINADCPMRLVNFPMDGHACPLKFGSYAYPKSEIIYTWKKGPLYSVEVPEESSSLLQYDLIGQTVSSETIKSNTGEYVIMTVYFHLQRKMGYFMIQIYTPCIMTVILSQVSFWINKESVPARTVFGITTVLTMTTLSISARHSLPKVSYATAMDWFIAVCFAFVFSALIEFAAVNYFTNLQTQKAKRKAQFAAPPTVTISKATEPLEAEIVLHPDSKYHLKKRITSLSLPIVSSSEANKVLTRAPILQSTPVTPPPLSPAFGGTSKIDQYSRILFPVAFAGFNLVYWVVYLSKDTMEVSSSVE

Variant	effect of a mutation on the interaction
MSRVPSPPPPAEMSSGPVAESWCYTQIKVVKFSYMWTINNFSFCREEMGEVIKSSTFSSGANDKLKWCLRVNPKGLDEESKDYLSLCLLLVSCPKSEVRAKFKFSILNAKGEETKAMESQRAYRFVQGKDWGFKKFIRRDFLLDEANGLLPDDKLTLFCEVSVVQDSVNISGQNTMNMVKVPECRLADELGGLWENSRFTDCCLCVAGQEFQAHKAILAARSPVFSAMFEHEMEESKKNRVEINDVEPEVFKEMMCFIYTGKAPNLDKMADDLLAAADKYALERLKVMCEDALCSNLSVENAAEILILADLHSADQLKTQAVDFINYHASDVLETSGWKSMVVSHPHLVAEAYRSLASAQCPFLGPPRKRLKQS [Y87C]	with no effect

Variants of: B1
Conditions: with gata1_human GATA1, P15976

Variant	effect of a mutation on the interaction
MSRVPSPPPPAEMSSGPVAESWCYTQIKVVKFSYMWTINNFSFCREEMGEVIKSSTFSSGANDKLKWCLRVNPKGLDEESKDYLSLCLLLVSCPKSEVRAKFKFSILNAKGEETKAMESQRAYRFVQGKDWGFKKFIRRDFLLDEANGLLPDDKLTLFCEVSVVQDSVNISGQNTMNMVKVPECRLADELGGLWENSRFTDCCLCVAGQEFQAHKAILAARSPVFSAMFEHEMEESKKNRVEINDVEPEVFKEMMCFIYTGKAPNLDKMADDLLAAADKYALERLKVMCEDALCSNLSVENAAEILILADLHSADQLKTQAVDFINYHASDVLETSGWKSMVVSHPHLVAEAYRSLASAQCPFLGPPRKRLKQS [Y87C]	with no effect

Variants of: B1
Conditions: with p66b_human GATAD2B

Variant	effect of a mutation on the interaction
MSRVPSPPPPAEMSSGPVAESWCYTQIKVVKFSYMWTINNFSFCREEMGEVIKSSTFSSGANDKLKWCLRVNPKGLDEESKDYLSLCLLLVSCPKSEVRAKFKFSILNAKGEETKAMESQRAYRFVQGKDWGFKKFIRRDFLLDEANGLLPDDKLTLFCEVSVVQDSVNISGQNTMNMVKVPECRLADELGGLWENSRFTDCCLCVAGQEFQAHKAILAARSPVFSAMFEHEMEESKKNRVEINDVEPEVFKEMMCFIYTGKAPNLDKMADDLLAAADKYALERLKVMCEDALCSNLSVENAAEILILADLHSADQLKTQAVDFINYHASDVLETSGWKSMVVSHPHLVAEAYRSLASAQCPFLGPPRKRLKQS [Y87C]	with no effect

Variants of: B1
Conditions: with gna11_human GNA11, P29992
Chain of gna11_human GNA11, P29992 (P29992 whole entry): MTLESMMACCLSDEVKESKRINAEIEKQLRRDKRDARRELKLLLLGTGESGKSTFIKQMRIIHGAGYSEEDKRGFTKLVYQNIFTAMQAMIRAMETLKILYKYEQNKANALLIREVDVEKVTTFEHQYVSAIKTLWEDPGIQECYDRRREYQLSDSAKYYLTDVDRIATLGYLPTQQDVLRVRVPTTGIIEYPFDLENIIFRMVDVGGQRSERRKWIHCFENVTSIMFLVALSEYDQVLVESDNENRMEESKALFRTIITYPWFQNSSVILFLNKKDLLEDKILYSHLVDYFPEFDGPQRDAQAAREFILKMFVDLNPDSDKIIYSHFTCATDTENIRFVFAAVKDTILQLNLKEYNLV

Variant	effect of a mutation on the interaction
MSRVPSPPPPAEMSSGPVAESWCYTQIKVVKFSYMWTINNFSFCREEMGEVIKSSTFSSGANDKLKWCLRVNPKGLDEESKDYLSLCLLLVSCPKSEVRAKFKFSILNAKGEETKAMESQRAYRFVQGKDWGFKKFIRRDFLLDEANGLLPDDKLTLFCEVSVVQDSVNISGQNTMNMVKVPECRLADELGGLWENSRFTDCCLCVAGQEFQAHKAILAARSPVFSAMFEHEMEESKKNRVEINDVEPEVFKEMMCFIYTGKAPNLDKMADDLLAAADKYALERLKVMCEDALCSNLSVENAAEILILADLHSADQLKTQAVDFINYHASDVLETSGWKSMVVSHPHLVAEAYRSLASAQCPFLGPPRKRLKQS [Y87C]	with no effect

Variants of: B1
Conditions: with gna13_human GNA13, Q14344
Chain of gna13_human GNA13, Q14344 (Q14344 whole entry): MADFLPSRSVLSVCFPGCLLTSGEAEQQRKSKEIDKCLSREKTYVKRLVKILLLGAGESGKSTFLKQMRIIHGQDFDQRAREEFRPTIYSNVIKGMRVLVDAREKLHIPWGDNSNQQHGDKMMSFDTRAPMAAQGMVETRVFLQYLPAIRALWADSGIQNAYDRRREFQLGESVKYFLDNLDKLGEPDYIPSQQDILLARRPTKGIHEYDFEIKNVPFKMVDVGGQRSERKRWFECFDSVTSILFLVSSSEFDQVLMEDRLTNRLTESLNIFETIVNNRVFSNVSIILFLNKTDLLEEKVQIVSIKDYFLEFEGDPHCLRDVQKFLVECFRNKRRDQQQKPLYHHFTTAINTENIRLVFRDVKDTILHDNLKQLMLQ

Variant	effect of a mutation on the interaction
MSRVPSPPPPAEMSSGPVAESWCYTQIKVVKFSYMWTINNFSFCREEMGEVIKSSTFSSGANDKLKWCLRVNPKGLDEESKDYLSLCLLLVSCPKSEVRAKFKFSILNAKGEETKAMESQRAYRFVQGKDWGFKKFIRRDFLLDEANGLLPDDKLTLFCEVSVVQDSVNISGQNTMNMVKVPECRLADELGGLWENSRFTDCCLCVAGQEFQAHKAILAARSPVFSAMFEHEMEESKKNRVEINDVEPEVFKEMMCFIYTGKAPNLDKMADDLLAAADKYALERLKVMCEDALCSNLSVENAAEILILADLHSADQLKTQAVDFINYHASDVLETSGWKSMVVSHPHLVAEAYRSLASAQCPFLGPPRKRLKQS [Y87C]	with no effect
